In the series the target is Glycated hemoglobin HbA1c (Homo sapiens, UniProt P69905;P68871 P69905:2-142,P68871:2-147). As to the kind of experiment: detection range by PEG:AptGP silicon nanowire FET in 1x PBS; hemolytic blood also detected, serum control response <10%. The conditions noted are these: also hemolytic whole blood samples; chain copies: 2. The protocol:
Prior to the surface modification, an SiNW-FET was washed with ethanol and cleaned with oxygen plasma (25 W, 50 sccm, 60 s). The SiNW-FET device was then incubated for 15 min in an ethanol solution (1% v/v) containing an optimal ratio of MPTMS, PTMS, and PEG-silane, of which the ethanol solution was also mixed with 16.7 mM DTT to reduce the possible disulfide linkages among the thiol groups of MPTMS. Next, this silane-based SAM-modified device was rinsed with ethanol, dried under N₂, and heated at 100° C. for 15 min. Finally, the silane-based SAM-modified device was incubated in 1×PBS containing 1 μM AptGP and 16.7 mM DTT for 1 hr, where AptGP (with the 5′-SH) was immobilized to MPTMS via a disulfide bond to form a PEG:AptGP/SiNW-FET aptasensor.
We show a representative example of measuring HbA1c in the blood sample of Subject 1 by PEG:AptGP/SiNW-FET. Before detecting HbA1c in a lysed-blood sample, a PEG:AptGP/SiNW-FET aptasensor was calibrated by recording the transfer curves corresponding to various concentrations of HbA1c (CHbA1c=0-1.2 μM in 1×PBS), as shown in FIG. 14. […] By comparison, we also detected HbA1c in serum as a control test (with the transfer curves measured in the lower panel of FIG. 16 and the corresponding electrical responses presented in FIG. 17), where the serum was isolated from the tested blood sample by centrifugation.

Results on 1 molecule are retold here after patent US20230028090, “Method Of Using Aptamer For Detecting Glycated Hemoglobin In Whole Blood And Nanoelectronic Aptasensor” (National Taiwan University, published 2023).

Chain of Glycated hemoglobin HbA1c (P69905 2-142, chain 1 of 2): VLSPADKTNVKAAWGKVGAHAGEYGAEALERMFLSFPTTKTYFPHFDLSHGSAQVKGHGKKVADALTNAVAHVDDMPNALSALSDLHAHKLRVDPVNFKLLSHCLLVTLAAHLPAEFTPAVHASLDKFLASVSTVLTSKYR
Chain of Glycated hemoglobin HbA1c (P68871 2-147, chain 2 of 2): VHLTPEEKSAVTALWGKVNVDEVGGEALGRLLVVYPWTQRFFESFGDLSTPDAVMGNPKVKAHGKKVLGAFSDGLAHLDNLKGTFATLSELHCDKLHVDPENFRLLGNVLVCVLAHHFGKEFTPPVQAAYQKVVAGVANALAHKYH

As for GGTGAGTTAAGGAATCAGCGGCTCAGACGACCCGACGCAC (ssDNA, end-modified for disulfide conjugation to MPTMS on silicon nanowire) [AptGP (Aptamer A)], the binding result is “binds”.
